Assay results: patent US20200022914A1, “LIPOSOMAL COMPOSITIONS AND SOLID ORAL DOSAGE FORMS COMPRISING THE SAME” (UNIVERSITÄT HEIDELBERG, priority 2017, published 2020)

Assay: Single dose PK study of oral Adalimumab in comparison with intravenous administration
Type: in vivo
Conditions: beagle dogs; oral 15 mg in lyophilized liposomes with 1 mol-% cycR9 conjugate in enteric coated capsule vs 3 mg intravenous; comparison of AUC values, ELISA
Experimental: Single dose PK study of oral Adalimumab (Humira™) in comparison with Adalimumab after intravenous administration. As animals, 2 beagle dogs were used. The oral dose of Adalimumab was 15 mg encapsulated in liposomes containing 1-mol% of the cycR9 conjugate described before. The liposomes were lyophilized and afterwards filled in an enteric coated capsule. The intravenous dose was 3 mg. The blood sampling time points for the oral administration were: 0 (pre-dose), 0:15, 0:30, 1:00, 2:00, 4:00, 8:00, 24:00, 48:00, 96:00 h p.a. The blood sampling time points for the intravenous administration were: 0 (pre-dose), 0:15, 0:30, 1:00, 2:00, 4:00, 8:00, 24:00, 48:00, 96:00 h p.a. All blood samples were analyzed by ELISA measurements (IDKmonitor® Adalimumab drug level ELISA, Immundiagnostik AG, Bensheim).

## Adalimumab
  bioavailability after oral administration: 3.55%
